Data reported in patent US20260356921 (published 2026).

Target: SARS-CoV (2003) RBD (SARS-CoV, UniProt P59594)
Experiment: BLI

B1: VHH-Fc (antibody, V domains shown)
VH: QVQLQESGGGLVQTGGSLRLSCAASGSFFSINDMGWYRQAPGKQRELVAMITGDDSTNYADSVKGRFTISRDNLKNTVYLQMNSLKPEDTALYYCNAEVKVIIWDSRFNYYWGQGTQVTVSS
Kd: 13 nM
